The values below come from the supplement of paper PMC5998384.

In series [1] the test system is HeLa Kyoto. The series is described as follows: solubility in G1/S (NP-40 vs SDS abundance) (log2 ratio); higher = more soluble. To be noted: cell cycle stage: G1/S.
The test system of series [2] is HeLa Kyoto. The series is described as follows: melting temperature (median over replicates), in situ; higher = more thermally stable.
The subject of series [3] is HeLa Kyoto. The series is described as follows: solubility change mitosis vs G1/S (difference of NP-40 vs SDS log2 ratios) (log2 ratio difference); higher = more soluble in mitosis.
Series [4] has as its system HeLa Kyoto. The series is described as follows: thermal stability score vs G1/S (z-score of summed log2 fold changes over temperatures); higher = more thermally stable than in G1/S.
Where [5] appears, read: cell cycle stage: early G1 (4.5 h after nocodazole release).
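Wherever melting temperature (median over replicates), in situ is given: HeLa Kyoto cells synchronized by double thymidine or nocodazole block, proteins quantified by TMT10plex mass spectrometry, three independent biological replicates.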
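Wherever solubility change mitosis vs G1/S (difference of NP-40 vs SDS log2 ratios) is given: synchronized HeLa Kyoto cells (double thymidine block for G1/S, nocodazole release for mitosis), protein amounts in NP-40 versus SDS lysates quantified by mass spectrometry, three biological replicates.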
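Wherever solubility in G1/S (NP-40 vs SDS abundance) is given: HeLa Kyoto cells arrested at G1/S by double thymidine block, proteins quantified by TMT10plex mass spectrometry in mild NP-40 versus SDS extracts, three biological replicates.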
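Wherever thermal stability score vs G1/S (z-score of summed log2 fold changes over temperatures) is given: synchronized HeLa Kyoto cells, proteins quantified by TMT10plex mass spectrometry, three biological replicates, mitosis taken 0.5 h after nocodazole release, G1/S directly after double thymidine block.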

Turning to “MATLLSHPQQRPPFLRQAIKIRRRRVRDLQDPPPQMAPEIQPPSHHFSPEQRALLYEDALYTVLHRLGHPEPNHVTEASELLRYLQEAFHVEPEEHQQTLQRVRELEKPIFCLKATVKQAKGILGKDVSGFSDPYCLLGIEQGVGVPGGSPGSRHRQKAVVRHTIPEEETHRTQVITQTLNPVWDETFILEFEDITNASFHLDMWDLDTVESVRQKLGELTDLHGLRRIFKEARKDKGQDDFLGNVVLRLQDLRCREDQWYPLEPRTETYPDRGQCHLQFQLIHKRRATSASRSQPSYTVHLHLLQQLVSHEVTQHEAGSTSWDGSLSPQAATVLFLHATQKDLSDFHQSMAQWLAYSRLYQSLEFPSSCLLHPITSIEYQWIQGRLKAEQQEELAASFSSLLTYGLSLIRRFRSVFPLSVSDSPARLQSLLRVLVQMCKMKAFGELCPNTAPLPQLVTEALQTGTTEWFHLKQQHHQPMVQGIPEAGKALLGLVQDVIGDLHQCQRTWDKIFHNTLKIHLFSMAFRELQWLVAKRVQDHTTVVGDVVSPEMGESLFQLYISLKELCQLRMSSSERDGVLALDNFHRWFQPAIPSWLQKTYNEALARVQRAVQMDELVPLGELTKHSTSAVDLSTCFAQISHTARQLDWPDPEEAFMITVKFVEDTCRLALVYCSLIKARARELSSGQKDQGQAANMLCVVVNDMEQLRLVIGKLPAQLAWEALEQRVGAVLEQGQLQNTLHAQLQSALAGLGHEIRTGVRTLAEQLEVGIAKHIQKLVGVRESVLPEDAILPLMKFLEVELCYMNTNLVQENFSSLLTLLWTHTLTVLVEAAASQRSSSLASNRLKIALQNLEICFHAEGCGLPPKALHTATFQALQRDLELQAASSRELIRKYFCSRIQQQAETTSEELGAVTVKASYRASEQKLRVELLSASSLLPLDSNGSSDPFVQLTLEPRHEFPELAARETQKHKKDLHPLFDETFEFLVPAEPCRKAGACLLLTVLDYDTLGADDLEGEAFLPLREVPGLSGSEEPGEVPQTRLPLTYPAPNGDPILQLLEGRKGDREAQVFVRLRRHRAKQASQHALRPAP [UNC13D]”, the “solubility in G1/S (log2)” value with HeLa Kyoto [1] is -0.0281. Besides, the melting temperature came to 51.5 °C in the series with HeLa Kyoto [2] (cell cycle stage: G1/S) and 51.4 °C in the series with HeLa Kyoto [2] (cell cycle stage: mitosis). In addition, the “solubility change mitosis (log2)” value in the series with HeLa Kyoto [3] was -0.0257. Besides, the thermal stability score in the series on HeLa Kyoto [4] (setting [5]) was -0.00435; in the series with HeLa Kyoto [4] (cell cycle stage: mitosis) it was 0.185.
As for “MAAAGGAEGRRAALEAAAAAAPERGGGSCVLCCGDLEATALGRCDHPVCYRCSTKMRVLCEQRYCAVCREELRQVVFGKKLPAFATIPIHQLQHEKKYDIYFADGKVYALYRQLLQHECPRCPELPPFSLFGDLEQHMRRQHELFCCRLCLQHLQIFTYERKWYSRKDLARHRMQGDPDDTSHRGHPLCKFCDERYLDNDELLKHLRRDHYFCHFCDSDGAQDYYSDYAYLREHFREKHFLCEEGRCSTEQFTHAFRTEIDLKAHRTACHSRSRAEARQNRHIDLQFSYAPRHSRRNEGVVGGEDYEEVDRYSRQGRVARAGTRGAQQSRRGSWRYKREEEDREVAAAVRASVAAQQQEEARRSEDQEEGGRPKKEEAAARGPEDPRGPRRSPRTQGEGPGPKETSTNGPVSQEAFSVTGPAAPGCVGVPGALPPPSPKLKDEDFPSLSASTSSSCSTAATPGPVGLALPYAIPARGRSAFQEEDFPALVSSVPKPGTAPTSLVSAWNSSSSSKKVAQPPLSAQATGSGQPTRKAGKGSRGGRKGGPPFTQEEEEDGGPALQELLSTRPTGSVSSTLGLASIQPSKVGKKKKVGSEKPGTTLPQPPPATCPPGALQAPEAPASRAEGPVAVVVNGHTEGPAPARSAPKEPPGLPRPLGSFPCPTPQEDFPALGGPCPPRMPPPPGFSAVVLLKGTPPPPPPGLVPPISKPPPGFSGLLPSPHPACVPSPATTTTTKAPRLLPAPRAYLVPENFRERNLQLIQSIRDFLQSDEARFSEFKSHSGEFRQGLISAAQYYKSCRDLLGENFQKVFNELLVLLPDTAKQQELLSAHTDFCNREKPLSTKSKKNKKSAWQATTQQAGLDCRVCPTCQQVLAHGDASSHQALHAARDDDFPSLQAIARIIT [ZNF598]”, the “solubility in G1/S (log2)” value in the series with HeLa Kyoto [1] is -0.223. Moreover, the values for the melting temperature in the series with HeLa Kyoto [2] (cell cycle stage: G1/S) and with HeLa Kyoto [2] (cell cycle stage: mitosis) were 51.6 °C and 51.1 °C, respectively. For the same sequence, the “solubility change mitosis (log2)” value in the series with HeLa Kyoto [3] is 0.108. The thermal stability score in the series on HeLa Kyoto [4] (setting [5]) was -1.86; in the series on HeLa Kyoto [4] (cell cycle stage: mitosis), -0.526.
Consider “MAWTKYQLFLAGLMLVTGSINTLSAKWADNFMAEGCGGSKEHSFQHPFLQAVGMFLGEFSCLAAFYLLRCRAAGQSDSSVDPQQPFNPLLFLPPALCDMTGTSLMYVALNMTSASSFQMLRGAVIIFTGLFSVAFLGRRLVLSQWLGILATIAGLVVVGLADLLSKHDSQHKLSEVITGDLLIIMAQIIVAIQMVLEEKFVYKHNVHPLRAVGTEGLFGFVILSLLLVPMYYIPAGSFSGNPRGTLEDALDAFCQVGQQPLIAVALLGNISSIAFFNFAGISVTKELSATTRMVLDSLRTVVIWALSLALGWEAFHALQILGFLILLIGTALYNGLHRPLLGRLSRGRPLAEESEQERLLGGTRTPINDAS [SLC35F6]”, for which, in the series on HeLa Kyoto [1], the “solubility in G1/S (log2)” value was -0.144. Further, the melting temperature worked out at 60.1 °C in the series with HeLa Kyoto [2] (cell cycle stage: G1/S) and 56 °C in the series on HeLa Kyoto [2] (cell cycle stage: mitosis). Also, the “solubility change mitosis (log2)” value with HeLa Kyoto [3] was -0.0109. Moreover, the thermal stability score in the series with HeLa Kyoto [4] (setting [5]) was -2.27; in the series on HeLa Kyoto [4] (cell cycle stage: mitosis), -5.04.
For “MGDAADPREMRKTFIVPAIKPFDHYDFSRAKIACNLAWLVAKAFGTENVPEELQEPFYTDQYDQEHIKPPVVNLLLSAELYCRAGSLILKSDAAKPLLGHDAVIQALAQKGLYVTDQEKLVTERDLHKKPIQMSAHLAMIDTLMMAYTVEMVSIEKVIACAQQYSAFFQATDLPYDIEDAVMYWINKVNEHLKDIMEQEQKLKEHHTVEAPGGQKSPSKWFWKLVPARYRKEQTLLKQLPCIPLVENLLKDGTDGCALAALIHFYCPDVVRLEDICLKETMSLADSLYNLQLIQEFCQEYLNQCCHFTLEDMLYAASSIKSNYLVFMAELFWWFEVVKPSFVQPRVVRPQGAEPVKDMPSIPVLNAAKRNVLDSSSDFPSSGEGATFTQSHHHLPSRYSRPQAHSSASGGIRRSSSMSYVDGFIGTWPKEKRSSVHGVSFDISFDKEDSVQRSTPNRGITRSISNEGLTLNNSHVSKHIRKNLSFKPINGEEEAESIEEELNIDSHSDLKSCVPLNTNELNSNENIHYKLPNGALQNRILLDEFGNQIETPSIEEALQIIHDTEKSPHTPQPDQIANGFFLHSQEMSILNSNIKLNQSSPDNVTDTKGALSPITDNTEVDTGIHVPSEDIPETMDEDSSLRDYTVSLDSDMDDASKFLQDYDIRTGNTREALSPCPSTVSTKSQPGSSASSSSGVKMTSFAEQKFRKLNHTDGKSSGSSSQKTTPEGSELNIPHVVAWAQIPEETGLPQGRDTTQLLASEMVHLRMKLEEKRRAIEAQKKKMEAAFTKQRQKMGRTAFLTVVKKKGDGISPLREEAAGAEDEKVYTDRAKEKESQKTDGQRSKSLADIKESMENPQAKWLKSPTTPIDPEKQWNLASPSEETLNEGEILEYTKSIEKLNSSLHFLQQEMQRLSLQQEMLMQMREQQSWVISPPQPSPQKQIRDFKPSKQAGLSSAIAPFSSDSPRPTHPSPQSSNRKSASFSVKSQRTPRPNELKITPLNRTLTPPRSVDSLPRLRRFSPSQVPIQTRSFVCFGDDGEPQLKESKPKEEVKKEELESKGTLEQRGHNPEEKEIKPFESTVSEVLSLPVTETVCLTPNEDQLNQPTEPPPKPVFPPTAPKNVNLIEVSLSDLKPPEKADVPVEKYDGESDKEQFDDDQKVCCGFFFKDDQKAENDMAMKRAALLEKRLRREKETQLRKQQLEAEMEHKKEETRRKTEEERQKKEDERARREFIRQEYMRRKQLKLMEDMDTVIKPRPQVVKQKKQRPKSIHRDHIESPKTPIKGPPVSSLSLASLNTGDNESVHSGKRTPRSESVEGFLSPSRCGSRNGEKDWENASTTSSVASGTEYTGPKLYKEPSAKSNKHIIQNALAHCCLAGKVNEGQKKKILEEMEKSDANNFLILFRDSGCQFRSLYTYCPETEEINKLTGIGPKSITKKMIEGLYKYNSDRKQFSHIPAKTLSASVDAITIHSHLWQTKRPVTPKKLLPTKA [CAMSAP2]”, the “solubility in G1/S (log2)” value in the series with HeLa Kyoto [1] was 0.00851. Also, the melting temperature with HeLa Kyoto [2] (cell cycle stage: G1/S) amounted to 51.7 °C; in the series on HeLa Kyoto [2] (cell cycle stage: mitosis), 53 °C. Also, the “solubility change mitosis (log2)” value in the series with HeLa Kyoto [3] was -0.0823. The figures for the thermal stability score with HeLa Kyoto [4] (setting [5]) and in the series with HeLa Kyoto [4] (cell cycle stage: mitosis) were 1.04 and 2.88, respectively.
